The results in this text go back to PMC11670252, “Antibody-mediated clearance of an ER-resident aggregate that causes glaucoma” (PNAS Nexus, 2024).

In this assay the target is T1, endogenous full-length myocilin from conditioned media of primary human TM cells (Homo sapiens, UniProt Q99972).
T1 construct: myocilin, human, endogenous, secreted into the medium; called full-length (~55 kDa); also called endogenous full-length myocilin (~55 kDa)
Description: immunoprecipitation; antibodies incubated with 15 mL conditioned medium of primary human TM cells without enrichment, or HBS buffer as control; myocilin found by Western blot. Particulars: one partner purified. Background: A western blot detects proteins with antibodies after separation by electrophoresis.

T1 sequence (Q99972 33-504): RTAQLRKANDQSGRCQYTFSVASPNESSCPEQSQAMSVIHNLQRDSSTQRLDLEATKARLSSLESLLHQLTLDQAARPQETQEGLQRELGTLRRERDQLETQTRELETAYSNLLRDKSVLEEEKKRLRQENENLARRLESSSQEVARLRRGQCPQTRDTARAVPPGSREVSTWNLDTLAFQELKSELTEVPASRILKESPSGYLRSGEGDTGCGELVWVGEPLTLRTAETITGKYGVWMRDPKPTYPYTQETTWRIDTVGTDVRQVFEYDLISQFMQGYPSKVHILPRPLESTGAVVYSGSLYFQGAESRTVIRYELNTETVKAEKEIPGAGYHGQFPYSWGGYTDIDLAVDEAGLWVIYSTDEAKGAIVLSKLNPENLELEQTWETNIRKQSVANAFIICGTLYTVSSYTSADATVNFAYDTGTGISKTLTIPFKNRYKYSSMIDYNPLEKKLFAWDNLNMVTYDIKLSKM

B1: anti-OLF1 chimeric IgG (murine variable domains, human IgG1/kappa constant domains) (antibody, V domains shown)
VH: QVQLQQSGPELVKPGASVKISCKTSGYTFTENTMHWVRQSHGKSLEWIGGIHPNNIGSTYNQKFKGKATLTVDKSSSTAYMELRSLTSEDSAVYYCTRGATAPFAYWGQGTLVTVSA
VL: DIVMTQTPLSLPVSLGDQASISCRSSQSIVHSNGNTYLHWYQQKSGQSPKLLIYKVSNRFSGVPDRFSGSGSGTDFTLKISRVEAEDLGVYFCSQSTHVPPTFGGGTKLEIK
For B1, the binding result was “binds”.
